Measurements reported in article PMC4700671.
Values joined by “and” are separate entries in the source; they are usually repeats but may differ in a detail not shown here. Identical values can stand only once.

Experiments:
[1] = target: myristoylated MMTV MA (matrix protein of mouse mammary tumor virus), wild type, with C-terminal His-tag (mouse mammary tumor virus) (UniProt P10258); test: AUC; sedimentation velocity, protein at 5.0 mg/mL in 50 mM Na2HPO4, 300 mM NaCl, 2.5 mM TCEP, pH 6.0; 50,000 rpm, 4 °C; absorbance at 250 nm; c(s) continuous size distribution; monomer to dimer (and tetramer)
[2] = target: myristoylated MMTV MA (matrix protein of mouse mammary tumor virus), wild type, with C-terminal His-tag (mouse mammary tumor virus) (UniProt P10258); test: AUC; sedimentation velocity, protein at 0.5 mg/mL in 50 mM Na2HPO4, 300 mM NaCl, 2.5 mM TCEP, pH 6.0; 50,000 rpm, 4 °C; absorbance at 280 nm; c(s) continuous size distribution; monomer to dimer
[3] = target: myristoylated MMTV MA triple mutant L11N/F12N/V15N, with C-terminal His-tag (mouse mammary tumor virus) (UniProt P10258); test: AUC; sedimentation velocity, protein at 5.0 mg/mL in 50 mM Na2HPO4, 300 mM NaCl, 2.5 mM TCEP, pH 6.0; 50,000 rpm, 4 °C; absorbance at 250 nm; c(s) continuous size distribution; monomer to dimer (and tetramer)
[4] = target: myristoylated MMTV MA triple mutant L11N/F12N/V15N, with C-terminal His-tag (mouse mammary tumor virus) (UniProt P10258); test: AUC; sedimentation velocity, protein at 0.5 mg/mL in 50 mM Na2HPO4, 300 mM NaCl, 2.5 mM TCEP, pH 6.0; 50,000 rpm, 4 °C; absorbance at 280 nm; c(s) continuous size distribution; monomer to dimer
[5] = target: nonmyristoylated MMTV MA (matrix protein of mouse mammary tumor virus), wild type, with C-terminal His-tag (mouse mammary tumor virus) (UniProt P10258); test: AUC; sedimentation velocity, protein at 5.0 mg/mL in 50 mM Na2HPO4, 300 mM NaCl, 2.5 mM TCEP, pH 6.0; 50,000 rpm, 4 °C; absorbance at 250 nm; c(s) continuous size distribution; monomer to dimer (and tetramer)

## myristoylated MMTV MA (matrix protein of mouse mammary tumor virus), wild type, with C-terminal His-tag (from UniProt P10258 2-92) (domain or fragment)
[1]
  percent dimer: 98%
  percent tetramer: 2%
  stoichiometry N: 2 and 4
[2]
  stoichiometry N: 2

## myristoylated MMTV MA triple mutant L11N/F12N/V15N, with C-terminal His-tag (from UniProt P10258 2-92) (domain or fragment)
[3]
  stoichiometry N: 2
[4]
  percent dimer: 48%
  stoichiometry N: 2

## nonmyristoylated MMTV MA (matrix protein of mouse mammary tumor virus), wild type, with C-terminal His-tag (from UniProt P10258 2-92) (domain or fragment)
[5]
  percent dimer: 26%
  stoichiometry N: 2
